Earlier results as cited in article PMC5074778.

Target: IL-6 receptor (Homo sapiens) (UniProt P08887)
Sequence of UniProt P08887 (P08887 20-365): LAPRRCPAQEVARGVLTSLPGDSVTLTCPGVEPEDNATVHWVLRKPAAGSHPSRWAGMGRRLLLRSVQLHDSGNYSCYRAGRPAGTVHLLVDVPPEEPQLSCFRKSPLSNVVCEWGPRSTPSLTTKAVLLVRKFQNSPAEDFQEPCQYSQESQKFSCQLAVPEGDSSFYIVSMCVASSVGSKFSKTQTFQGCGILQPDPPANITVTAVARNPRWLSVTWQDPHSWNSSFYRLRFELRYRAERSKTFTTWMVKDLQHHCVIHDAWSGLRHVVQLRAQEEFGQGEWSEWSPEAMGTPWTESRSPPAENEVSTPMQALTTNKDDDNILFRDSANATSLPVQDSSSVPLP

Kd: 2.5 nM
Substance: Tocilizumab
